Patent US12291727B2, “Method for producing stem cell-derived lacrimal gland tissue” (Osaka University, priority 2018, dated 2025)

B1: BMP7: growth factor reportedly involved in lacrimal gland differentiation (protein, UniProt P18075 293-431, looked up)
Bone morphogenetic protein 7: STGSKQRSQNRSKTPKNQEALRMANVAENSSSDQRQACKKHELYVSFRDLGWQDWIIAPEGYAAYYCEGECAFPLNSYMNATNHAIVQTLVHFINPETVPKPCCAPTQLNAISVLYFDDSSNVILKKYRNMVVRACGCH
B2: TGF-β3: TGF-β subtype added to the medium to promote cell maturation (protein, UniProt P10600 301-412, looked up)
Transforming growth factor …: ALDTNYCFRNLEENCCVRPLYIDFRQDLGWKWVHEPKGYYANFCSGPCPYLRSADTTHSTVLGLYNTLNPEASASPCCVPQDLEPLTILYYVGRTPKVEQLSNMVVKSCKCS
modifications: Transforming growth factor beta-3
notes: TGF-β subtype added to the medium to promote cell maturation
B3: FGF10: growth factor reportedly involved in lacrimal gland differentiation (protein, UniProt O15520 38-208, looked up)
Fibroblast growth factor 10: QALGQDMVSPEATNSSSSSFSSPSSAGRHVRSYNHLQGDVRWRKLFSFTKYFLKIEKNGKVSGTKKENCPYSILEITSVEIGVVAVKAINSNYYLAMNKKGKLYGSKEFNNDCKLKERIEENGYNTYASFNWQHNGRQMYVALNGKGAPRRGQKTRRKNTSAHFLPMVVHS
B4: KGF: keratinocyte growth factor, growth factor reportedly involved in lacrimal gland differentiation (protein, UniProt P21781 32-194, looked up)
Fibroblast growth factor 7: CNDMTPEQMATNVNCSSPERHTRSYDYMEGGDIRVRRLFCRTQWYLRIDKRGKVKGTQEMKNNYNIMEIRTVAVGIVAIKGVESEFYLAMNKEGKLYAKKECNEDCNFKELILENHYNTYASAKWTHNGGEMFVALNQKGIPVRGKKTKKEQKTAHFLPMAIT

Tested on: CD200−, SSEA4+, and CD104+ ocular surface stem cells
Test: Three-dimensional culture for induction of lacrimal gland organoids from iPS cell-derived ocular surface stem cells
Format: cell-based, Human
Conditions: for promoting lacrimal gland differentiation: 3D culture in Matrigel, 20 ng/mL KGF, 100 ng/mL FGF10, 100 ng/mL BMP7 or 10 μM Y-27632, each plus 10 ng/mL EGF, FIG. 5A
Procedure: The obtained ocular surface stem cells were seeded on PrimeSurface (registered trademark) 96U plates (Sumitomo Bakelite Co., Ltd.) at 50,000 cells/spheroid in DMEM/F-12 with B27 supplement containing 10 μM Y-27632 and 20 ng/mL KGF and cultured for 1 day to form spheroids (diameter: about 560 μm). The spheroids were embedded in Matrigel GFR (Corning) and cultured in DMEM/F-12 with B27 supplement containing 10 μM Y-27632, 10 ng/mL EGF, and 100 ng/mL TGF-β3 for 2 weeks.
Three-dimensional culture was performed as described in Example 2 in the presence of 10 ng/mL EGF, 10 ng/mL EGF plus 10 μM Y-27632, or 10 ng/mL EGF plus another growth factor reportedly involved in lacrimal gland differentiation, namely, 20 ng/mL KGF, 100 ng/mL FGF10, or 100 ng/mL BMP7.
Similarly, three-dimensional culture was performed in DMEM/F-12 with B27 supplement, 10 ng/mL EGF, and 10 μM Y-27632 containing 100 ng/mL TGF-β1, β2, or β3.
Three-dimensional culture was performed as described in Example 2 in a medium with 10 ng/mL EGF and 10 μM Y-27632 containing 4, 20, or 100 ng/mL TGF-β3.
RNA was collected from each sample using QIAzol Lysis Reagent and subjected to gene expression analysis as described in Example 3.

| Molecule | promoting lacrimal gland differentiation | also measured |
| --- | --- | --- |
| TGF-β |  | maturation of the lacrimal gland structure (100 ng/mL TGF-β1, β2 or β3 in medium with 10 ng/mL EGF and 10 μM Y-27632, FIG. 5B): helped further maturation of the lacrimal gland structure |
| C[C@@H](N)[C@H]1CC[C@H](C(=O)Nc2ccncc2)CC1 [Y-27632, N-(4-pyridinyl)-4β-[(R)-1-aminoethyl]cyclohexane-1α-carboamide, reference compound] | remarkably promoted lacrimal gland differentiation |  |
| B1 | less effective |  |
| B2 |  | maturation (morphology and gene expression) (4 ng/mL TGF-β3 in medium with 10 ng/mL EGF and 10 μM Y-27632, FIGS. 6A, 6B): maturation was promoted to some extent; extent of maturation, concentration dependence (4, 20 or 100 ng/mL TGF-β3 in medium with 10 ng/mL EGF and 10 μM Y-27632): increased in a TGF-β3 concentration dependent manner |
| B3 | less effective |  |
| B4 | less effective |  |
